Data from article PMC10257657, “A flavin-monooxygenase catalyzing oxepinone formation and the complete biosynthesis of vibralactone” (Nature Communications, 2023).

Substrate: CC(C)=CCc1cc(CO)ccc1O
Assay: purified protein
Format: biochemical, Boreostereum vibrans
Details: NADPH 0.1 mM, 50 mM sodium phosphate pH 7.5, 28 °C, 30 min

B1: VibO (Boreostereum vibrans) (protein)
chain: MAAVENFEGYVEPELFERPGTSLPNKLGVMPQLTWPNVLNGTNCEKPAVPNYKPPSKVDVIIIGAGPVGLTTAACLLRQGITVRILDRSPHPLPVGRADGLQPRSMEVFDLLGLGEEVYHVGIRVEHTTVYKDGKQHIFAESHQAPGNEAHYTGLHACTQTEVEHLLIRDLIRHDILVERPCTATSYTFDEEADASVTHPITVNITNEATGAEEVVTARFLVGSDGAHSMIRKSLPIEFPGVKTDLHWGIVDAVINSDFPHRWTFGTVLNSEYGGCLIIPRERNMVRLYVQLRAEPGKAFDHSKWGPEEILVILNKVFAPYTLSYAEPVDWYTILTINERVATSFTYKDRIFLAGDSCHVHSAKGAFGMNTGVMDAHNLAWKLAMLCRGIAKPSLLASYDVERRENALRAVATSARYLRFVGNCTFQAIDGSGEVDKEADELVVPPGEDKDVFYFKKFVGQVGRFLIGLDVDYAENALNKLSPAVSRARAGYRASNPRVALSRSHSGRLYHSFGHLGQFTLLVFASNMGGALNAKLHALDSYLAGPSSFYHAYGGADTFKIVVVVRATPSQADQRVKTFPFLSKAGHTVYDDQLPLSHFGGDAHALYGVSHEEGAIVVVRPDSWIGTSSTISDARSLESYFDGFLFKSTEGSY
notes: full length, N-terminal His6 tag, expressed in E. coli BL21(DE3) (pET28a(+)); domains cover residues 1-653; dimer; copurified FAD
  Km: 407 ± 83 µM
  kcat: 0.111 ± 0.010 min^–1
